Laboratory results published in patent US20230035659A1, “Compositions and Methods for TTR Gene Editing and Treating ATTR Amyloidosis Comprising a Corticosteroid or Use Thereof” (Intellia Therapeutics, Inc., priority 2019, published 2023).
Strand notation (5' to 3'): a small letter for the sugar, then the base; units joined by * are phosphorothioate-linked, units joined directly phosphodiester-linked; [ ] holds rarer units or linkages, { } end groups; capitals alone tell only the bases. m = 2'-O-methyl; r = 2'-OH (RNA)

B1: G000485: TTR sgRNA modified sequence, Human, SEQ ID NO: 92; guide sequence of CR003336 (nucleic acid)
guide: mC*mC*mU*rCrCrUrCrUrGrCrCrUrUrGrCrUrGrGrArCrGrUrUrUrUrArGrAmGmCmUmAmGmAmAmAmUmAmGmCrArArGrUrUrArArArArUrArArGrGrCrUrArGrUrCrCrGrUrUrArUrCrAmAmCmUmUmGmAmAmAmAmAmGmUmGmGmCmAmCmCmGmAmGmUmCmGmGmUmGmCmU*mU*mU*mU
B2: G000496: TTR sgRNA modified sequence, Human, SEQ ID NO: 103; guide sequence of CR005304 (nucleic acid)
guide: mG*mG*mC*rCrGrUrGrCrArUrGrUrGrUrUrCrArGrArArGrUrUrUrUrArGrAmGmCmUmAmGmAmAmAmUmAmGmCrArArGrUrUrArArArArUrArArGrGrCrUrArGrUrCrCrGrUrUrArUrCrAmAmCmUmUmGmAmAmAmAmAmGmUmGmGmCmAmCmCmGmAmGmUmCmGmGmUmGmCmU*mU*mU*mU
B3: G000487: TTR sgRNA modified sequence, Human, SEQ ID NO: 94; guide sequence of CR003357 (nucleic acid)
guide: mU*mU*mC*rUrUrUrGrGrCrArArCrUrUrArCrCrCrArGrGrUrUrUrUrArGrAmGmCmUmAmGmAmAmAmUmAmGmCrArArGrUrUrArArArArUrArArGrGrCrUrArGrUrCrCrGrUrUrArUrCrAmAmCmUmUmGmAmAmAmAmAmGmUmGmGmCmAmCmCmGmAmGmUmCmGmGmUmGmCmU*mU*mU*mU
B4: G000498: TTR sgRNA modified sequence, Human, SEQ ID NO: 105; guide sequence of CR003359 (nucleic acid)
guide: mA*mG*mU*rGrArGrUrCrUrGrGrArGrArGrCrUrGrCrArGrUrUrUrUrArGrAmGmCmUmAmGmAmAmAmUmAmGmCrArArGrUrUrArArArArUrArArGrGrCrUrArGrUrCrCrGrUrUrArUrCrAmAmCmUmUmGmAmAmAmAmAmGmUmGmGmCmAmCmCmGmAmGmUmCmGmGmUmGmCmU*mU*mU*mU
B5: G000504: TTR Cyno specific sgRNA modified sequence, SEQ ID NO: 116; guide sequence of CR005364 (nucleic acid)
guide: mA*mA*mA*rGrGrCrUrGrCrUrGrArUrGrArGrArCrCrUrGrUrUrUrUrArGrAmGmCmUmAmGmAmAmAmUmAmGmCrArArGrUrUrArArArArUrArArGrGrCrUrArGrUrCrCrGrUrUrArUrCrAmAmCmUmUmGmAmAmAmAmAmGmUmGmGmCmAmCmCmGmAmGmUmCmGmGmUmGmCmU*mU*mU*mU
B6: G000497: TTR sgRNA modified sequence, Human, SEQ ID NO: 104; guide sequence of CR003335 (nucleic acid)
guide: mC*mU*mG*rCrUrCrCrUrCrCrUrCrUrGrCrCrUrUrGrCrGrUrUrUrUrArGrAmGmCmUmAmGmAmAmAmUmAmGmCrArArGrUrUrArArArArUrArArGrGrCrUrArGrUrCrCrGrUrUrArUrCrAmAmCmUmUmGmAmAmAmAmAmGmUmGmGmCmAmCmCmGmAmGmUmCmGmGmUmGmCmU*mU*mU*mU
B7: G000495: TTR sgRNA modified sequence, Human, SEQ ID NO: 102; guide sequence of CR003343 (nucleic acid)
guide: mC*mA*mG*rArGrGrArCrArCrUrUrGrGrArUrUrCrArCrGrUrUrUrUrArGrAmGmCmUmAmGmAmAmAmUmAmGmCrArArGrUrUrArArArArUrArArGrGrCrUrArGrUrCrCrGrUrUrArUrCrAmAmCmUmUmGmAmAmAmAmAmGmUmGmGmCmAmCmCmGmAmGmUmCmGmGmUmGmCmU*mU*mU*mU
B8: G000492: TTR sgRNA modified sequence, Human, SEQ ID NO: 99; guide sequence of CR003342 (nucleic acid)
guide: mC*mU*mU*rCrUrCrUrArCrArCrCrCrArGrGrGrCrArCrGrUrUrUrUrArGrAmGmCmUmAmGmAmAmAmUmAmGmCrArArGrUrUrArArArArUrArArGrGrCrUrArGrUrCrCrGrUrUrArUrCrAmAmCmUmUmGmAmAmAmAmAmGmUmGmGmCmAmCmCmGmAmGmUmCmGmGmUmGmCmU*mU*mU*mU
B9: G000501: TTR sgRNA modified sequence, Human, SEQ ID NO: 108; guide sequence of CR005300 (nucleic acid)
guide: mU*mC*mA*rCrArGrArArArCrArCrUrCrArCrCrGrUrArGrUrUrUrUrArGrAmGmCmUmAmGmAmAmAmUmAmGmCrArArGrUrUrArArArArUrArArGrGrCrUrArGrUrCrCrGrUrUrArUrCrAmAmCmUmUmGmAmAmAmAmAmGmUmGmGmCmAmCmCmGmAmGmUmCmGmGmUmGmCmU*mU*mU*mU
B10: G000491: TTR sgRNA modified sequence, Human, SEQ ID NO: 98; guide sequence of CR003338 (nucleic acid)
guide: mA*mU*mA*rCrCrArGrUrCrCrArGrCrArArGrGrCrArGrGrUrUrUrUrArGrAmGmCmUmAmGmAmAmAmUmAmGmCrArArGrUrUrArArArArUrArArGrGrCrUrArGrUrCrCrGrUrUrArUrCrAmAmCmUmUmGmAmAmAmAmAmGmUmGmGmCmAmCmCmGmAmGmUmCmGmGmUmGmCmU*mU*mU*mU
B11: G000503: TTR Cyno specific sgRNA modified sequence, SEQ ID NO: 115; guide sequence of CR005372 (nucleic acid)
guide: mA*mA*mA*rArGrGrCrUrGrCrUrGrArUrGrArGrArCrCrGrUrUrUrUrArGrAmGmCmUmAmGmAmAmAmUmAmGmCrArArGrUrUrArArArArUrArArGrGrCrUrArGrUrCrCrGrUrUrArUrCrAmAmCmUmUmGmAmAmAmAmAmGmUmGmGmCmAmCmCmGmAmGmUmCmGmGmUmGmCmU*mU*mU*mU

Assays:
TTR [1] = experiment: TTR editing in primary human hepatocytes treated with LNP formulated Spy Cas9 mRNA (SEQ ID NO: 2) and sgRNAs, 12.5 ng mRNA; type: cell-based; conditions: LNP formulated Spy Cas9 mRNA (SEQ ID NO: 2) and sgRNA, 12.5 ng mRNA, 3.9 nM sgRNA, 72 hours
Method: (§1) Primary liver hepatocytes. Primary human liver hepatocytes (PHH) and primary cynomolgus liver hepatocytes (PCH) (Gibco) were cultured per the manufacturer's protocol (Invitrogen, protocol 11.28.2012). In brief, the cells were thawed and resuspended in hepatocyte thawing medium with supplements (Gibco, Cat. CM7000) followed by centrifugation at 100 g for 10 minutes for human and 80 g for 4 minutes for cyno. The supernatant was discarded and the pelleted cells resuspended in hepatocyte plating medium plus supplement pack (Invitrogen, Cat. A1217601 and CM3000). Cells were counted and plated on Bio-coat collagen I coated 96-well plates (ThermoFisher, Cat. 877272) at a density of 33,000 cells/well for human or 60,000 cells/well for cyno (or 65,000 cells/well when assaying effects on TTR protein, described further below). Plated cells were allowed to settle and adhere for 6 or 24 hours in a tissue culture incubator at 37° C. and 5% CO2 atmosphere. After incubation cells were checked for monolayer formation and media was replaced with hepatocyte culture medium with serum-free supplement pack (Invitrogen, Cat. A1217601 and CM4000).
In general, the lipid nanoparticle components were dissolved in 100% ethanol with the lipid component of various molar ratios. The RNA cargos were dissolved in 25 mM citrate, 100 mM NaCl, pH 5.0, resulting in a concentration of RNA cargo of approximately 0.45 mg/mL. The LNPs were formulated with a lipid amine to RNA phosphate (N:P) molar ratio of about 4.5 or about 6, with the ratio of mRNA to gRNA at 1:1 by weight.
The LNPs were formed by microfluidic mixing of the lipid and RNA solutions using a Precision Nanosystems NanoAssemblr™ Benchtop Instrument, according to the manufacturer's protocol. A 2:1 ratio of aqueous to organic solvent was maintained during mixing using differential flow rates. After mixing, the LNPs were collected, diluted in water (approximately 1:1 v/v), held for 1 hour at room temperature, and further diluted with water (approximately 1:1 v/v) before final buffer exchange. The final buffer exchange into 50 mM Tris, 45 mM NaCl, 5% (w/v) sucrose, pH 7.5 (TSS) was completed with PD-10 desalting columns (GE). If required, formulations were concentrated by centrifugation with Amicon 100 kDa centrifugal filters (Millipore). The resulting mixture was then filtered using a 0.2 μm sterile filter. The final LNP was stored at −80° C. until further use.
(§2) Additional PCR was performed per the manufacturer's protocols (Illumina) to add chemistry for sequencing. The amplicons were sequenced on an Illumina MiSeq instrument. The reads were aligned to a reference genome (e.g., the human reference genome (hg38), the cynomologus reference genome (mf5), the rat reference genome (rn6), or the mouse reference genome (mm10)) after eliminating those having low quality scores. The resulting files containing the reads were mapped to the reference genome (BAM files), where reads that overlapped the target region of interest were selected and the number of wild type reads versus the number of reads which contain an insertion, substitution, or deletion was calculated.
(§3) The editing percentage (e.g., the “editing efficiency” or “percent editing” or “indel frequency”) is defined as the total number of sequence reads with insertions/deletions (“indels”) or substitutions over the total number of sequence reads, including wild type.
Lipid nanoparticle formulations of modified sgRNAs targeting human TTR and the cyno matched sgRNA sequences were tested on primary human hepatocytes and primary cyno hepatocytes in a dose response curve. Primary human and cyno hepatocytes were plated as described in Example 1. Both cell lines were incubated at 37° C., 5% CO2 for 24 hours prior to treatment with LNPs. The LNPs used in the experiments detailed in Tables 18-21 were prepared using the Nanoassemblr™ procedure, each containing the specified sgRNA and Cas9 mRNA (SEQ ID NO:2), each having Lipid. […]

[2] = tested on: potential off-target genomic sites; experiment: Off-target analysis by oligo insertion based assay in primary human hepatocytes (sgRNAs); type: cell-based; conditions: 100 ng Cas9 mRNA, 25 nM sgRNA, 12.5 nM donor oligo, 48 h
Method: Off-target analysis of sgRNAs targeting TTR was performed in primary human hepatocytes (PHH) as described in Example 5, with the following modifications. PHH were plated at a density of 33,000 cells per well on collagen-coated 96-well plates as described in Example 1. Twenty-four hours post plating, cells were washed with media and transfected using Lipofectamine RNAiMAX (ThermoFisher, Cat. 13778150) as described in Example 1. Cells were transfected with a lipoplex containing 100 ng Cas9 mRNA, immediately followed by the addition of another lipoplex containing 25 nM of the sgRNA and 12.5 nM of the donor oligo (0.3 μL/well). Cells were lysed 48 hours post-transfection and gDNA was extracted and analyzed as further described in Example 5. The data is graphically represented in FIG. 20.
Fewer sites were detected in PHH for every guide tested as compared to the HekCas9 cell line, with no unique sites detected in PHH alone.

TTR [3] = experiment: TTR editing dose response (EC50, maximum editing) in primary cyno hepatocytes treated with LNP formulated U-depleted Spy Cas9 mRNA and sgRNAs; type: cell-based, cynomolgus monkey
Method: as §1
(§4) For LNPs prepared using the cross-flow technique, the LNPs were formed by impinging jet mixing of the lipid in ethanol with two volumes of RNA solutions and one volume of water. The lipid in ethanol is mixed through a mixing cross with the two volumes of RNA solution. A fourth stream of water is mixed with the outlet stream of the cross through an inline tee. (See WO2016010840 FIG. 2.) The LNPs were held for 1 hour at room temperature, and further diluted with water (approximately 1:1 v/v). Diluted LNPs were concentrated using tangential flow filtration on a flat sheet cartridge (Sartorius, 100 kD MWCO) and then buffer exchanged by diafiltration into 50 mM Tris, 45 mM NaCl, 5% (w/v) sucrose, pH 7.5 (TSS). Alternatively, the final buffer exchange into TSS was completed with PD-10 desalting columns (GE). If required, formulations were concentrated by centrifugation with Amicon 100 kDa centrifugal filters (Millipore). The resulting mixture was then filtered using a 0.2 μm sterile filter. The final LNP was stored at 4° C. or −80° C. until further use.
as §2, §3
(§5) Lipid nanoparticle formulations of modified sgRNAs targeting human TTR and the cyno matched sgRNA sequences were tested on primary human hepatocytes and primary cyno hepatocytes in a dose response curve. Primary human and cyno hepatocytes were plated as described in Example 1. Both cell lines were incubated at 37° C., 5% CO2 for 24 hours prior to treatment with LNPs. The LNPs used in the experiments detailed in Tables 20-22 were prepared using the cross-flow procedure described above but purified using PD-10 columns (GE Healthcare Life Sciences) and concentrated using Amicon centrifugal filter units (Millipore Sigma), each containing the specified sgRNA and Cas9 mRNA (SEQ ID NO:1). […] LNPs were incubated in hepatocyte maintenance media containing 6% cyno serum at 37° C., 5% CO2 for 5 minutes. […]

TTR [4] = experiment: TTR editing dose response (EC50, maximum editing) in primary human hepatocytes treated with LNP formulated U-depleted Spy Cas9 mRNA and sgRNAs; type: cell-based; conditions: LNP with U-depleted Spy Cas9 mRNA and cyno specific sgRNA, 8 point 3-fold dose response starting at 300 ng mRNA, 72 hours
Method: as §1, §4, §2, §3, §5

[5] = LNP formulated U-depleted Spy Cas9 mRNA and cyno specific sgRNAs

Molecule | 12.5 ng mRNA, 3.9 nM sgRNA, Avg % Edit (TTR [1]) [%] | # Sites in PHH (off-target integration sites detected) [2] | Max Editing (TTR [3]; [5]) [%] | Max Editing (TTR [3]; LNP formulated U-depleted Spy Cas9 mRNA and human specific sgRNAs) [%] | Max Editing (TTR [4]) [%]
B1 | 14.23 | 3 | – | – | –
B2 | 30.73 | 0 | – | – | –
B3 | 17.37 | 0 | – | – | –
B4 | 24.43 | 19 | – | – | –
B5 | – | – | 98.04 | 7.16 | 7.16
B6 | 15.10 | 3 | – | – | –
B7 | 23.97 | 1 | – | – | –
B8 | 15.87 | 5 | – | – | –
B9 | 32.30 | 0 | – | – | –
B10 | 31.60 | 7 | – | – | –
B11 | – | – | 83.41 | – | –
